Source: article PMC13107553

Target: Bicarbonate Transporter Related protein-1 (BTR1), human (human) (UniProt Q8NBS3)
Experiment: cryo-EM structure; BTR1 in LMNG/CHS micelle buffer; 140 mmol/L KCl, pH 7.5, 3.25 Å; further structures in 11 buffer conditions (KCl, NaCl, NH4Cl, NH4Cl + NaCl, boric acid; varying pH), 13 states, inward- and outward-facing

stoichiometry N: 2
Substance: Bicarbonate Transporter Related protein-1 (BTR1), human (from UniProt Q8NBS3 1-875) (natural protein)
